Laboratory results from patent US20240254254.

How the values were obtained:
[1] = size exclusion chromatography in 1 mM ATP (dimer state)
[2] = size exclusion chromatography in 1 mM ADP (monomer state)
[3] = size exclusion chromatography (Superdex S200 Increase) in 1 mM ADP buffer
[4] = size exclusion chromatography (Superdex S200 Increase) in 1 mM ATP buffer

Protein | effective molecular weight (SEC) in 1 mM ATP [1] | effective molecular weight (SEC) in 1 mM ADP [2] | elution volume (SEC) in 1 mM ADP [3] | elution volume (SEC) in 1 mM ATP [4]
human TAP1 NBD comprising N676G, S677N, Q680R, E682Q and Q683R substitutions, substitutions of cysteines with serines (SEQ ID NO:10) and a C-terminal His tag (protein) GLLTPLHLEGLVQFQDVSFAYPNRPDVLVLQGLTFTLRPGEVTALVGPNGSGKSTVAALLQNLYQPTGGQLLLDGKPLPQYEHRYLHRQVAAVGQEPQVFGRSLQENIAYGLTQKPTMEEITAAAVKSGAHSFISGLPQGYDTEVDEAGSQLSGGQRQAVALARALIRKPSVLILDNATSALDAGNQLRVQRLLYESPERYSRSVLLITQHLSLVEQADHILFLEGGAIREGGTHQQLMEKKGSYWAMVQAPADAPE | in the presence of ATP the protein chromatographs with an effective molecular weight of 57 kDa | in the presence of ADP the protein chromatographs with an effective molecular weight of 37 kDa |  | 
TAP1 NBD of SEQ ID NO:87 with a peptide comprising a SpyTag3, TEV protease site and a His tag attached at the C-terminus (protein) MPPSGLLTPLHLEGLVQFQDVSFAYPNRPDVLVLQGLTFTLRPGEVTALVGPNGSGKSTVAALLQNLYQPTGGQLLLDGKPLPQYEHRYLHRQVAAVGQEPQVFGRSLQENIAYGLTQKPTMEEITAAAVKSGAHSFISGLPQGYDTEVDEAGSQLSGGQRQAVALARALIRKPSVLILDNATSALDAGNQLRVQRLLYESPERYSRSVLLITQHLSLVEQADHILFLEGGAIREGGTHQQLMEKKGSYWAMVQAPADAPE |  |  | the ADP sample eluted at 16.81 ml | The ATP-containing sample eluted at a volume of 15.75 ml
